The record followed here is patent publication US20250236666A1 (UNIVERSITE DE LILLE, published 2025).

Changes are numbered by the printed parent chain. No end group written: not given here. *: point of attachment. Biotin = O=C1N[C@H]2[C@H](CS[C@H]2CCCCC(=O)*)N1; C6spacer = C6 spacer

Test [1] has as its target T1, Human Transient Receptor Potential Vanilloid 6 (TRPV6) channel protein (human, UniProt Q9H1D0 1-765, glycosylated/mature form (band around 95-100 kDa); N-glycosylation site at position 397).
T1 construct: Endogenous or vector-expressed TRPV6 of human cell lines (LNCaP, PC3M luc C6, transfected HEK); On live cells in flow cytometry and the functional assays; in whole cell lysates under denaturing conditions (monomer) in the immunoblots; also called hTRPV6
T1 sequence: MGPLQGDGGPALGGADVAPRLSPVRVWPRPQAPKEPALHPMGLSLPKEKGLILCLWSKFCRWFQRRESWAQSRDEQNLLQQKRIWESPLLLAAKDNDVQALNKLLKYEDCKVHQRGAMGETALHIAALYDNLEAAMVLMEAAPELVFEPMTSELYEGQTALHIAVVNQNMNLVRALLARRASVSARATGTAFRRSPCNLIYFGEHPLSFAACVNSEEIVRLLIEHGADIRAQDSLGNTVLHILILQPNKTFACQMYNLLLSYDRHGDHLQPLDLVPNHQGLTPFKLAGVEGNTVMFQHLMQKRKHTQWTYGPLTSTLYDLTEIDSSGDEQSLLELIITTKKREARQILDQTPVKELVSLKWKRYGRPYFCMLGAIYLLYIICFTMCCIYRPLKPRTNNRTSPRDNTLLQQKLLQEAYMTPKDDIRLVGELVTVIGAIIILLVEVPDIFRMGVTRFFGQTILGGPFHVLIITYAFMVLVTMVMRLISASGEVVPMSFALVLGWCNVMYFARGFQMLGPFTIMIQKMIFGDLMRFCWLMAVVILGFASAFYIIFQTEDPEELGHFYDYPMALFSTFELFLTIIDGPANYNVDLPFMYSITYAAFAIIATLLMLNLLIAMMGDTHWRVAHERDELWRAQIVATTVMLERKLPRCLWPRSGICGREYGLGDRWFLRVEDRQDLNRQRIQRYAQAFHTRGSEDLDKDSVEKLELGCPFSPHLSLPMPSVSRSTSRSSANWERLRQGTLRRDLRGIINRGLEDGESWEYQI
Put plainly: immunoblotting of LNCaP whole cell lysates, denaturing conditions. (In western blotting, separated proteins are transferred to a membrane and probed.)

For test [2], the target named is T2, Peptide 2 (Pore Forming 1) TEDPEELGHFYDYPMAK-[biot] (human).
T2 construct: Synthetic biotinylated peptide immobilized at 10 µg/mL on streptavidin plates; also called P2
T2 peptide: TEDPEELGHFYDYPMAK-biotin
Put plainly: dose-response ELISA, biotinylated peptide on streptavidin plate, IgG 0.00282 to 500 nM, anti-Fab-HRP. The method, then:
(§1) TRPV6 biotinylated peptides were immobilized at 10 μg/mL on a streptavidin coated plate. IgGs binding was tested at different concentrations (from 0.00282 to 500 nM) and detected using an anti-Fab-HRP (Sigma A0293).
(§2) IgGs binding to Human TRPV6 peptides was tested by ELISA. TRPV6 biotinylated peptides were immobilized at 10 μg/mL on a streptavidin coated plate. IgGs binding was tested at different concentrations (from 0.00282 to 500 nM) and detected using an anti-Fab-HRP (Sigma A0293).

Test [3] deals with T3, Peptide 3 (Pore Forming 2) [biot]-[C6spacer]-DGPANYNVDLPFMYS (human).
T3 construct: Synthetic biotinylated peptide immobilized at 10 µg/mL on streptavidin plates; also called P3
T3 peptide: {Biotin-C6spacer}-DGPANYNVDLPFMYS
The description is as above. The method, then:
as §1, §2

B1: Mouse monoclonal anti-TRPV6 antibody 82 (mAb82) (antibody, mouse IgG2a, kappa, V domains shown)
VH: EVKLLESGGGLVQPGGSLKLSCAASGFDFRRYWMSWVRQAPGKGLEWIGEINPDSSTINYTPSLKDKFIISRDNAKNTLYLQMSKVRSEDTALYYCARSASSHYFDYWGQGTTLTVSS
VL: DIVMSQSPSSLAVSVGEKVTMSCKSSQSLLYSSNQKNYLAWYQQKPGQSPKLLIYWASTRESGVPDRFTGSGSGTDFTLTISSVKAEDLAVYYCQQYYRYPTFGGGTKLEIKR
notes: also called mab82a; No. 82a
B1: the binding result in test [1] is “binds”.

B2: Monoclonal antibody P2-R4-G08 (antibody, human IgG1, kappa, V domains shown)
VH: EVQLVESGGSLVKPGGSLRLSCAASGFTFSNYGMNWVRQAPGKGLEWISGISGSSRSIGYADFVKGRFTISRDNAKNSLYLQMNSLRAEDTAVYYCVRSSYYYGMDVWGRGTLVTVSS
VL: QSVLTQPASVSGSPGQSITISCAGTSSDVGGYGQVSWYQQHPGKAPKLMIYSDSSRPSGVSNRFSGSKSGNTASLTISGLQAEDEADYYCSSYTSYSTRVFGGGTKLEIKR
notes: scFv from phage display subcloned into Human IgG1 format, expressed in HEK293T; also called P2-R4-G8
As to B2, in test [2], the concentration giving a half-maximal response (EC50) (in general, the concentration at which the effect is half-maximal) is 0.49 nM.

B3: Monoclonal antibody P3-R4-F03 (antibody, human IgG1, kappa, V domains shown)
VH: EVQLVESGGSLVKPGGSLRLSCAASGFTFSNNYMNWVRQAPGKGLEWISSIGGSSRDIYYADFVKGRFTISRDNAKNSLYLQMNSLRAEDTAVYYCVRSNSGMDVWGRGTLVTVSS
VL: B2 VL with Y32S, G33Y, Q34S, S52Y, S55Y, Y93N, S95Q, Y96S
notes: scFv from phage display subcloned into Human IgG1 format, expressed in HEK293T; also called P3-R4-F3
In test [3], B3 displayed an EC50 of 0.86 nM. In other words, the sub-nanomolar range.

B4: Monoclonal antibody P3-R5-E06 (antibody, human IgG1, kappa, V domains shown)
VH: EVQLVESGGSLVKPGGSLRLSCAASGFTFSNAYMNWVRQAPGKGLEWISSISGSSSYIGYADFVKGRFTISRDNAKNSLYLQMNSLRAEDTAVYYCVRSSYYNYDYGDAMDVWGRGTLVTVSS
VL: B2 VL with Y32N, G33Y, Q34Y, S52Q, S55N, S95G
notes: scFv from phage display subcloned into Human IgG1 format, expressed in HEK293T; also called P3-R5-E6
In turn, B4 displayed an EC50 in test [3] of 0.98 nM.

B5: Monoclonal antibody P3-R5-H03 (antibody, human IgG1, kappa, V domains shown)
VH: B2 VH with Y32A, G50Y, S57Y, G59N, Y101S, Y102S
VL: B2 VL with Y32G, G33Y, Q34Y, S52G, S55N, Y93N, S95Y
notes: scFv from phage display subcloned into Human IgG1 format, expressed in HEK293T; also called P3-R5-H3
In turn, B5 returned an EC50 in test [3] of 0.36 nM.

B6: Monoclonal antibody P3-R4-E11 (antibody, human IgG1, kappa, V domains shown)
VH: EVQLVESGGSLVKPGGSLRLSCAASGFTFSNSGMNWVRQAPGKGLEWISGISGSSRYIGYADFVKGRFTISRDNAKNSLYLQMNSLRAEDTAVYYCVRSNYGGMDVWGRGTLVTVSS
VL: B2 VL with Q34Y, S52Y, S55Y, Y96Q
notes: scFv from phage display subcloned into Human IgG1 format, expressed in HEK293T
On to B6, for which a half-maximal response in test [3] (EC50) required 0.9 nM.
